From doi:10.1101/2025.09.18.677151

Target: T1, E. coli TatC (subunit of the overexpressed TatBC complex) (E. coli), P69423
T1 chain: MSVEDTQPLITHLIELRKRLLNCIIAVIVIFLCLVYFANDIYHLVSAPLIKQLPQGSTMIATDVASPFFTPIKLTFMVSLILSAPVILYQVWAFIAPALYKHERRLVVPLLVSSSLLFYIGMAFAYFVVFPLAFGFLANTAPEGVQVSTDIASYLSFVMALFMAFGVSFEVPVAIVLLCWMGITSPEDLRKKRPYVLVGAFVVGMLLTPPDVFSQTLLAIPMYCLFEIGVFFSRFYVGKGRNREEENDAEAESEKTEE
Experiment: cryo-EM structure
Conditions: remark: other sources report otherwise

- stoichiometry N: 3
B1: E. coli TatC (subunit of the overexpressed TatBC complex), P69423 1-258 (natural protein)
chain: T1 chain
